Here are results for 125 sequences from the supplement of paper PMC9112550, “Optimization of the antimicrobial peptide Bac7 by deep mutational scanning” (BMC Biology, 2022).

In this series the test system is Escherichia coli TOP10. Kind of series: shrunken log2 fold change of peptide-encoding DNA abundance (4.5 h post-induction vs induction); higher = less antimicrobial activity (less host growth inhibition). Particulars: time post-induction: 4.5 h; library: site-saturation at positions 5, 18, 19, 20.
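Also: peptides expressed intracellularly from a pBAD plasmid library in pooled LB shake-flask culture, induced with 0.3% L-arabinose, DNA abundance read by NGS, three biological replicates, DESeq2 with apeglm shrinkage.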

Regarding RRIRIRPPRLPRPRPRPNMWPRP, the “shrunken log2 fold change” value is -0.59. As for RRIRGRPPRLPRPRPRPMQMPRP, the “shrunken log2 fold change” value is 1.5. As for RRIRIRPPRLPRPRPRPHQFPRP, the figure is -0.525; as for RRIRQRPPRLPRPRPRPGNVPRP, 0.0829.

As to RRIRVRPPRLPRPRPRPVDRPRP, the “shrunken log2 fold change” value turned out to be 0.257.

On to RRIRFRPPRLPRPRPRPEDYPRP, for which the “shrunken log2 fold change” value turned out to be 0.0145.

Turning to RRIRDRPPRLPRPRPRPCIPPRP, the “shrunken log2 fold change” value is -0.123. For the sequence RRIRVRPPRLPRPRPRPPAYPRP, the “shrunken log2 fold change” value was determined as 0.0576.

On to RRIRCRPPRLPRPRPRPENAPRP, for which the “shrunken log2 fold change” value stood at 0.117. As for RRIRIRPPRLPRPRPRPDEVPRP, the figure is -0.0316; as for RRIRMRPPRLPRPRPRPCWKPRP, -0.0216; as for RRIRRRPPRLPRPRPRPVKWPRP, 0.111.

As to RRIRERPPRLPRPRPRPKKNPRP, the “shrunken log2 fold change” value was -0.0468.

Regarding RRIRNRPPRLPRPRPRPMRVPRP, the “shrunken log2 fold change” value came to 0.161. As for RRIRNRPPRLPRPRPRPYFMPRP, the figure is -1.09; as for RRIRVRPPRLPRPRPRPYSNPRP, -0.676. As for RRIRDRPPRLPRPRPRPWELPRP, the figure is 0.18. As for RRIRIRPPRLPRPRPRPTTPPRP, the figure is 0.552; as for RRIRMRPPRLPRPRPRPTGPPRP, 0.388; as for RRIRYRPPRLPRPRPRPIMQPRP, -0.107. As to RRIRERPPRLPRPRPRPQYYPRP, the “shrunken log2 fold change” value was -0.676. Take RRIRERPPRLPRPRPRPLFYPRP: the “shrunken log2 fold change” value is -0.513.

Consider RRIRWRPPRLPRPRPRPMETPRP, for which the “shrunken log2 fold change” value was 1.73.

With RRIRKRPPRLPRPRPRPFVPPRP, the “shrunken log2 fold change” value was -0.297. As for RRIRCRPPRLPRPRPRPRCEPRP, the figure is 0.0872; as for RRIRTRPPRLPRPRPRPRNQPRP, -0.139. Take RRIRARPPRLPRPRPRPPDMPRP: the “shrunken log2 fold change” value amounted to 0.778. Turning to RRIRWRPPRLPRPRPRPVTCPRP, the “shrunken log2 fold change” value is -0.00133.

For the sequence RRIRQRPPRLPRPRPRPKCIPRP, the “shrunken log2 fold change” value was -0.0337. For RRIRYRPPRLPRPRPRPPNKPRP, the “shrunken log2 fold change” value is -0.585. RRIRKRPPRLPRPRPRPQNEPRP: the “shrunken log2 fold change” value is -0.0827. As for RRIRHRPPRLPRPRPRPEKTPRP, the figure is 0.115.

Regarding RRIRCRPPRLPRPRPRPNYTPRP, the “shrunken log2 fold change” value was -0.879. As for RRIRERPPRLPRPRPRPCASPRP, the figure is -0.172; as for RRIRPRPPRLPRPRPRPKVRPRP, 0.161. Regarding RRIRHRPPRLPRPRPRPGIKPRP, the “shrunken log2 fold change” value was 0.0126. As for RRIRDRPPRLPRPRPRPHYLPRP, the figure is -0.159; as for RRIRERPPRLPRPRPRPAVGPRP, 0.209. Take RRIRERPPRLPRPRPRPNFEPRP: the “shrunken log2 fold change” value was -0.188.

With RRIRGRPPRLPRPRPRPYNKPRP, the “shrunken log2 fold change” value is -0.593. In the case of RRIRYRPPRLPRPRPRPLAIPRP, the “shrunken log2 fold change” value was -0.778. As for RRIRERPPRLPRPRPRPEKAPRP, the figure is -0.0229; as for RRIRMRPPRLPRPRPRPGGDPRP, 1.58; as for RRIRRRPPRLPRPRPRPYPSPRP, -0.305. As for RRIRRRPPRLPRPRPRPNRRPRP, the figure is 0.231. For RRIRMRPPRLPRPRPRPKGHPRP, the “shrunken log2 fold change” value amounted to 0.0377. In the case of RRIRNRPPRLPRPRPRPNHPPRP, the “shrunken log2 fold change” value was -0.318.

RRIRYRPPRLPRPRPRPILHPRP: the “shrunken log2 fold change” value was -0.141. As for RRIRVRPPRLPRPRPRPPLEPRP, the figure is 0.431. Regarding RRIRERPPRLPRPRPRPEDAPRP, the “shrunken log2 fold change” value was -0.079. For the sequence RRIRNRPPRLPRPRPRPISGPRP, the “shrunken log2 fold change” value was -0.0579.

In the case of RRIRWRPPRLPRPRPRPGMAPRP, the “shrunken log2 fold change” value was 0.627. Turning to RRIRDRPPRLPRPRPRPKDWPRP, the “shrunken log2 fold change” value is 0.601. As for RRIRSRPPRLPRPRPRPTHQPRP, the figure is 0.417. Take RRIRKRPPRLPRPRPRPWCIPRP: the “shrunken log2 fold change” value is -0.103.

For RRIRWRPPRLPRPRPRPDNRPRP, the “shrunken log2 fold change” value was -0.213.

Turning to RRIRQRPPRLPRPRPRPAPRPRP, the “shrunken log2 fold change” value is 0.966. As for RRIRNRPPRLPRPRPRPCCIPRP, the figure is -0.00191; as for RRIRTRPPRLPRPRPRPELRPRP, 0.225.

As for RRIRYRPPRLPRPRPRPCPFPRP, the “shrunken log2 fold change” value was -0.0574.

For RRIRERPPRLPRPRPRPIQPPRP, the “shrunken log2 fold change” value came out at 0.0319. As for RRIRWRPPRLPRPRPRPKNVPRP, the figure is -0.0641. On to RRIRARPPRLPRPRPRPPSPPRP, for which the “shrunken log2 fold change” value is 0.669. As for RRIRMRPPRLPRPRPRPCFGPRP, the figure is -0.23; as for RRIRCRPPRLPRPRPRPKVKPRP, -0.133. As for RRIRSRPPRLPRPRPRPFFPPRP, the figure is -0.196. As for RRIRRRPPRLPRPRPRPARAPRP, the “shrunken log2 fold change” value is 0.523. As for RRIRKRPPRLPRPRPRPVVPPRP, the figure is -0.093; as for RRIRYRPPRLPRPRPRPGRLPRP, -0.0505. As for RRIRTRPPRLPRPRPRPTPFPRP, the figure is 0.356; as for RRIRTRPPRLPRPRPRPYCSPRP, -0.858. With RRIRSRPPRLPRPRPRPLIRPRP, the “shrunken log2 fold change” value is -0.196. As for RRIRFRPPRLPRPRPRPQWWPRP, the figure is -0.0312; as for RRIRARPPRLPRPRPRPLEDPRP, 0.241. As for RRIRDRPPRLPRPRPRPVANPRP, the figure is -0.0229. For the sequence RRIRARPPRLPRPRPRPGSWPRP, the “shrunken log2 fold change” value came out at 0.759.

As to RRIRCRPPRLPRPRPRPYCHPRP, the “shrunken log2 fold change” value was -1.37.

On to RRIRSRPPRLPRPRPRPIYPPRP, for which the “shrunken log2 fold change” value was -0.766.

For the sequence RRIRFRPPRLPRPRPRPRDDPRP, the “shrunken log2 fold change” value is 0.133. For the sequence RRIRTRPPRLPRPRPRPMCPPRP, the “shrunken log2 fold change” value was -0.017. Regarding RRIRSRPPRLPRPRPRPYAHPRP, the “shrunken log2 fold change” value is -0.131. As for RRIRQRPPRLPRPRPRPYYAPRP, the “shrunken log2 fold change” value is -0.898. As for RRIRLRPPRLPRPRPRPDRDPRP, the figure is -0.154; as for RRIRGRPPRLPRPRPRPWEHPRP, -0.000921; as for RRIRDRPPRLPRPRPRPVYPPRP, -0.089.

Turning to RRIRVRPPRLPRPRPRPWFKPRP, the “shrunken log2 fold change” value came to 0.0333. As for RRIRIRPPRLPRPRPRPNQVPRP, the figure is -0.429; as for RRIRSRPPRLPRPRPRPTDRPRP, 0.000994; as for RRIRFRPPRLPRPRPRPQIVPRP, 0.0871. Consider RRIRHRPPRLPRPRPRPNPDPRP, for which the “shrunken log2 fold change” value was -0.0353. As for RRIRTRPPRLPRPRPRPCEMPRP, the figure is 0.0671; as for RRIRDRPPRLPRPRPRPDENPRP, 0.511; as for RRIRIRPPRLPRPRPRPIVGPRP, 0.00911. For RRIRDRPPRLPRPRPRPIRPPRP, the “shrunken log2 fold change” value is -0.0136.

For RRIRCRPPRLPRPRPRPLTYPRP, the “shrunken log2 fold change” value was -0.19. Regarding RRIRFRPPRLPRPRPRPSQFPRP, the “shrunken log2 fold change” value is -0.44. As for RRIRWRPPRLPRPRPRPKFHPRP, the figure is -0.249; as for RRIRNRPPRLPRPRPRPAFDPRP, 0.235; as for RRIRIRPPRLPRPRPRPALIPRP, -0.0428. Turning to RRIRNRPPRLPRPRPRPVHYPRP, the “shrunken log2 fold change” value was -0.124. With RRIRCRPPRLPRPRPRPEHDPRP, the “shrunken log2 fold change” value was -0.131. As for RRIRHRPPRLPRPRPRPPKCPRP, the figure is 0.145; as for RRIRWRPPRLPRPRPRPGYEPRP, 0.00228; as for RRIRNRPPRLPRPRPRPCPHPRP, -0.01. In the case of RRIRKRPPRLPRPRPRPGHGPRP, the “shrunken log2 fold change” value came out at 0.16. As for RRIRQRPPRLPRPRPRPRFPPRP, the figure is 0.0593; as for RRIRRRPPRLPRPRPRPKFDPRP, 0.101; as for RRIRERPPRLPRPRPRPCIMPRP, -0.397.

Regarding RRIRHRPPRLPRPRPRPFSMPRP, the “shrunken log2 fold change” value was -0.0138. As to RRIRKRPPRLPRPRPRPKEFPRP, the “shrunken log2 fold change” value is 0.232. Turning to RRIRTRPPRLPRPRPRPKPHPRP, the “shrunken log2 fold change” value was determined as 0.0899. As for RRIRRRPPRLPRPRPRPWRSPRP, the figure is 0.181; as for RRIRFRPPRLPRPRPRPMRSPRP, 0.904; as for RRIRKRPPRLPRPRPRPRQPPRP, 0.467.

Turning to RRIRPRPPRLPRPRPRPCGPPRP, the “shrunken log2 fold change” value is 0.189. As for RRIRQRPPRLPRPRPRPQRAPRP, the figure is 0.224; as for RRIRARPPRLPRPRPRPHRIPRP, -0.145; as for RRIRGRPPRLPRPRPRPEVFPRP, 1.38. As for RRIRQRPPRLPRPRPRPHTTPRP, the figure is 0.182; as for RRIRNRPPRLPRPRPRPACMPRP, 0.0165; as for RRIRRRPPRLPRPRPRPSNEPRP, -0.105. As to RRIRLRPPRLPRPRPRPMSKPRP, the “shrunken log2 fold change” value was determined as 0.0198. As for RRIRRRPPRLPRPRPRPKIFPRP, the figure is 0.0586. Take RRIRKRPPRLPRPRPRPDWWPRP: the “shrunken log2 fold change” value was -0.0103. As for RRIRRRPPRLPRPRPRPHDCPRP, the figure is 0.00386.
